Experimental data taken from US8263350B2, “Molecular affinity clamp technology and uses thereof” (The University of Chicago, priority 2009, dated 2012).
Ends that are not written are not given here.

Experiments:
ePDZ-b2 = experiment: SPR binding of the new tag peptide to ePDZ-b2; settings: FIG. 9, SPR, ePDZ-b2 immobilized
Method: The affinity clamps were immobilized and the target peptides in the form of yeast SUMO fusion protein were used as the analytes. (a) Sensorgrams for the interaction of the wild-type ARVCF peptide and ePDZ-b2. Data with 0, 10, 20, 40, 80 and 160 nM peptide are shown in black, and calculated curves from the global fittings of the 1:1 Langmuir binding model are in orange. The estimated dissociation constant is indicated. The peptide sequence is also shown. (b) Sensorgrams for the interaction of the new tag peptide to ePDZ-b2. Data with 0, 10, 20, 40 and 80 nM target are shown.
(§1) Affinity Measurements. SPR measurements were performed in 20 mM HEPES/NaOH buffer (pH 7.4), 150 mM NaCl, and 0.005% Tween 20 at 25° C. on a BIAcore 2000 instrument. The affinity clamp or the linker mutant was immobilized on a Ni-NTA chip to the level of approximate 300 RU, and different concentrations of SUMO-peptide fusion protein were injected. The kinetic data were analyzed using the one-to-one binding model in BIAEvaluation (BIAcore). For weak interactions (Kd>5 μM), Kd values were determined from the saturation curve of the maximum RU values.

ARVCF peptide = target: T1, ARVCF peptide (Homo sapiens, UniProt O00192); experiment: SPR affinity measurement of affinity clamps with the ARVCF peptide; assay type: binding; settings: 25° C.
T1 construct: His tag (N, cleaved yes); made in house; host or cells: E. coli BL21(DE3)
Method: (§2) Protein Expression and Purification. All proteins used in this study were expressed using derivatives of the pHFT2 expression vector in E. coli BL21(DE3) cells. Protein expression was induced with 500 μM IPTG for three to five hours at 25° C. Proteins were purified with Ni affinity chromatography following standard protocols. When necessary, a second step of purification with Sephacryl S-100 column in PBS (50 mM sodium phosphate containing 150 mM NaCl, pH 7.4) was performed to ensure that proteins were monomeric. For protein crystallization and SPR experiments, the N-terminal His tag was cleaved with TEV protease and the cleaved protein was purified using Ni affinity chromatography.
(§3) Site-directed mutagenesis. Mutant forms of the SUMO-ARVCF peptide fusion protein and linker mutants of affinity clamps were constructed using Kunkel mutagenesis.
as §1

δ-catenin peptide = target: T2, δ-catenin peptide (Homo sapiens, UniProt Q9UQB3); experiment: SPR affinity measurement of affinity clamps with the δ-catenin peptide; assay type: binding
T2 construct: His tag (N, cleaved yes); made in house; host or cells: E. coli BL21(DE3)
Method: as §2, §1

[1] = tested on: ARVCF peptide (alanine substituted); experiment: Ala-scanning of the ARVCF peptide with SPR affinity measurements; assay type: binding; settings: substitution at each of the four positions −7 to −4 of the ARVCF peptide
Source text: Alanine-scanning mutagenesis analysis. Although the phage-display library approach is powerful in determining general trends in sequence specificity, large-scale sequencing is necessary for quantitatively characterizing protein-interaction energetics (Skelton et al., 2003; Sidhu and Koide, 2007). This requirement is acute particularly when there is a strong amino acid preference and thus recovered clones are dominated by a particular pattern, as in our case above. Accordingly, to complement the library sorting experiments described above, the inventors performed Ala-scanning experiments of the ARVCF peptide coupled with affinity measurements using SPR. Because the goal was to understand the differences in target recognition of the affinity clamps, and because the sequence specificity of the C-terminal four residues is predominantly defined by the specificity of the parent PDZ domain, the inventors analyzed only those positions that differed between the ARVCF and δ-catenin peptides.
as §3
Affinity Measurements. […] The kinetic data were analyzed using the one-to-one binding model in BIAEvaluation (BIAcore). […]

Row | Molecule | affinity compared with the original (ARVCF) peptide (ePDZ-b2) | dissociation rate compared with the original (ARVCF) peptide (ePDZ-b2) | Kd (ARVCF peptide) [µM] | discrimination between ARVCF peptide and δ-catenin peptide (δ-catenin peptide) | Kd (δ-catenin peptide; SPR, 25° C.) [µM] | Specificity Index (δ-catenin peptide; ratio of the Kd for δ-catenin to the Kd for ARVCF) | decrease in binding (ΔΔG) on alanine substitution [1]
1 | RGSIDTWV-COOH (RGSIDTWV-OH) [used in SPR as yeast SUMO fusion] | higher affinity | much slower |  |  |  |  | 
2 | Erbin PDZ: wild-type Erbin PDZ domain, the parent capture domain of the affinity clamps (protein) EIRVRVEKDPELGFSISGGVGGRGNPFRPDDDGIFVTRVQPEGPASKLLQPGDKIIQANGYSFINIEHGQAVSLLKTFQNTVELIIVREV |  |  | 2.2 | almost equally | 6.3 | 3 | only small effects
